# B1: 16G7 monoclonal antibody (antibody, IgG1, V domains shown)
# VH: QVKLQESGAELMKPGASVKISCKATGYKFSDYWIEWIKQRPGHGLEWIGEILPGSGSTNYNEDFKDKATFTSDTSSNTAYMQLSSLTSEDSAVYYCAKEERAYYFGYWGQGTTVTVSS
# VL: DVLMTQTPLSLPVSLGDQASISCRSSQSLENSNGNTYLNWYLQKPGQSPQLLIYRVSNRFSGVLDRFSGSGSGTDFTLKISRVEAEDLGVYFCLQVTHVPPTFGAGTKLELKR
# B2: 15C1 monoclonal antibody (antibody, IgG1, V domains shown)
# VH: DVQLQESGPDLIQPSQSLSLTCTVTGYSITGGYSWHWIRQFPGNKLEWMGYIHYSGYTDFNPSLKTRISITRDTSKNQFFLQLNSVTTEDTATYYCARKDPSDGFPYWGQGTLVTVSA
# VL: DIVMTQSPATLSVTPGDRVSLSCRASQSISDHLHWYQQKSHESPRLLIKYASHAISGIPSRFSGSGSGTDFTLSIKSVEPEDIGVYYCQNGHSFPLTFGAGTKLELKR
# notes: also called 15C1 MAb; 15C1 mouse MAb
# B3: chimeric 15C1 MAb (antibody, V domains shown)
# VH: B2 VH
# VL: B2 VL
# notes: also called chimerical 15C1
# B4: 7E3 monoclonal antibody (antibody, IgG1, V domains shown)
# VH: QVTLKESGPGILQPSQTLSLTCSFSGFSLTTYNIGVGWIRQPSGKGLEWLAHIWWNDNIYYNTVLKSRLTFSKDTSNNQVFLKIASVDIADTATYYCIRMAEGRYDAMDYWGQGTSVTVSS
# VL: AIQMTQSTSSLSASLGDRVTINCRASQDITNYLNWYQQKPDGTVRLLIYYTSKLHSGAPSRFSGRGSGTDYSLTISNLEQEDIATYFCQQGNTFPWTFGGGTKLEIKR
# B5: chimeric 7E3 MAb (antibody, V domains shown)
# VH: B4 VH
# VL: B4 VL
# B6: chimeric 18H10 MAb (antibody, V domains shown)
# VH: QVQLQQSGADLVRPGALVKLSCTASGFNIKDSYIHWVKKRPEWGLEWIGWTDPENVNSIYDPRFQGKASITADTSSNTAFLQLTSLTSEDTAVYYCARGYNGVYYAMDYWGQGTTVTVSS
# VL: QIVLTQSPSIMSASLGEEITLTCSASSSVIYMHWYQQKSGTSPKLLIYRTYNLASGVPSRFSGSGSGTFYSLTISSVEAEDAADYYCHQWSSFPYTFGGGTKLEIKR
# Legend:
# [1] = molecular target: T1, human TLR4 and human MD-2 on transiently transfected HEK 293 cells (human, UniProt O00206 24-839; Q9Y6Y9 19-160); experiment: FACS on transiently transfected HEK 293 cells
# T1 construct: whole, on cells; also called human TLR4/MD-2 complex
# Method: FIGS. 4A-4L are a series of graphs depicting the specificity of the 18H10 monoclonal antibody for MD-2. The specificity of the 18H10 antibody is shown by flow cytometry analysis of HEK 293 cells transiently transfected with either human TLR4 and human MD-2 (FIG. 4A, FIG. 4E and FIG. 4I); rabbit TLR4 and rabbit MD-2 (FIG. 4B, FIG. 4F and FIG. 4J); human TLR4 and rabbit MD-2 (FIG. 4C, FIG. 4G and FIG. 4K); or rabbit TLR4 and human MD-2 (FIG. 4D, FIG. 4H and FIG. 4L). Cells were incubated with either α-FLAG™ antibody (to detect TLR4 expression); α-C-myc antibody (to detect MD-2 expression) or the 18H10 monoclonal antibody, followed by an APC-coupled α-mouse (H+L) antibody.
# FIGS. 12A-12L is a series of graphs depicting the specificity of the 16G7 monoclonal antibody for TLR4. […]
# HEK 293 cells were plated in 6 well plates at a density of 2.5×10⁵ cells/well in 2 ml culture medium containing 10% FBS. […] 48 hours post-transfection, cells were stained with the appropriate monoclonal antibody (as indicated in FIGS. 4A-4L) and an APC-coupled goat anti-mouse IgG (H+L) antibody (Molecular Probes) and analyzed using the FACScalibur in the FL-4 channel.
# [2] = molecular target: T2, human TLR4/MD-2 complex on the surface of transfected CHO cells (human, UniProt O00206 24-839; Q9Y6Y9 19-160); experiment: FACS of hybridoma supernatant on mock vs. TLR4/MD-2 transfected CHO cells
# T2 construct: whole, on cells; also called TLR4/MD-2 transfected CHO cells; hTLR4/MD-2 transfected CHO cells
# Method: Mice immunized with CHO cells expressing surface TLR4/MD-2 were monitored for specific serum titers. […] This strategy was chosen in order to minimize the response to non-specific CHO cellular antigens, while simultaneously maximizing the TLR4/MD-2-specific response. Screening by FACS of supernatants from hybridomas resulting from B cell/myeloma fusions was performed on mock transfected vs. TLR4/MD-2 transfected CHO cells.
# [3] = molecular target: T2, human TLR4/MD-2 complex on the surface …; experiment: flow cytometry, mock transfected vs. TLR4/MD-2 transfected cells
# [4] = molecular target: T1, human TLR4 and human MD-2 on …; experiment: FACS on transiently transfected HEK 293 cells, 15C1 at 10 µg/ml
# Method: (§1) FIGS. 17A-17F are a series of graphs depicting the specificity of the 15C1 monoclonal antibody for TLR4. The specificity of the 15C1 antibody is shown by flow cytometry analysis of HEK 293 cells transiently transfected with either mock vector, i.e., empty vector (FIG. 17A), human TLR4 (FIG. 17B), human TLR4 and human MD-2 (FIG. 17C), rabbit TLR4 and rabbit MD-2 (FIG. 17D), human TLR4 and rabbit MD-2 (FIG. 17E), or rabbit TLR4 and human MD-2 (FIG. 17F). Cells were incubated with the 15C1 monoclonal antibody (10 μg/ml), followed by an APC-coupled α-mouse (H+L) antibody.
# (§2) HEK 293 cells were plated in 6 well plates at a density of 2.5×10⁵ cells/well in 2 ml culture medium containing 10% FBS. 16 hours post-plating, cells were transfected with 0.75 μg of the appropriate vector(s) using Fugene™ reagent (Roche) according to the manufacturer's guidelines. 48 hours post-transfection, cells were stained with the appropriate monoclonal antibody (as indicated in FIGS. 4A-4L) and an APC-coupled goat anti-mouse IgG (H+L) antibody (Molecular Probes) and analyzed using the FACScalibur in the FL-4 channel.
# [5] = molecular target: T3, human TLR4 alone in transfected HEK 293 cells (human, UniProt O00206 24-839); experiment: as above
# T3 construct: whole, on cells; also called TLR4 alone in transfected cell lysates
# Method: as §1, §2
# [6] = molecular target: T2, human TLR4/MD-2 complex on the surface …; experiment: flow cytometry on TLR4/MD-2 transfected CHO cells, against an isotype matched control monoclonal antibody
# Source text: FIG. 19 is a graph depicting that the VH and VL nucleotide sequence of 15C1 expressed as a chimeric MAb (“chimeric 15C1”) is capable of binding specifically to the human TLR4/MD-2 complex on the surface of transfected CHO cells. MAb binding to the TLR4/MD-2 complex is shown by flow cytometry using chimeric 15C1 or an isotype matched control monoclonal antibody at the indicated concentration.
# (§3) Specific binding of MAb at the indicated concentration was detected using an APC-labeled goat-anti-human IgG (H+L) secondary antibody. An irrelevant isotype-matched IgG1 MAb was used as a control.
# [7] = molecular target: T3, human TLR4 alone in transfected HEK 293 …; experiment: FACS on HEK 293 cells transfected with human TLR4 alone
# Method: (§4) FIGS. 24A-24F is a series of graphs depicting the specificity of the 7E3 monoclonal antibody for the TLR4/MD-2 complex. The specificity of the 7E3 antibody is shown by flow cytometry analysis of HEK 293 cells transiently transfected with either mock vector (FIG. 24A), human TLR4 (FIG. 24B), human TLR4 and human MD-2 (FIG. 24C), rabbit TLR4 and rabbit MD-2 (FIG. 24D), human TLR4 and rabbit MD-2 (FIG. 24E), or rabbit TLR4 and human MD-2 (FIG. 24F). Cells were incubated with the 7E3 monoclonal antibody (10 μg/ml), followed by an APC-coupled α-mouse (H+L) antibody.
# as §2
# [8] = molecular target: T1, human TLR4 and human MD-2 on …; experiment: FACS on transiently transfected HEK 293 cells, 7E3 at 10 µg/ml
# Method: as §4, §2
# [9] = molecular target: T2, human TLR4/MD-2 complex on the surface …; experiment: flow cytometry on TLR4/MD-2 transfected CHO cells, against an isotype matched control MAb
# Source text: FIG. 26 is a graph illustrating that the VH and VL nucleotide sequence of 7E3 expressed as a chimeric MAb (“chimeric 7E3”) is capable of binding specifically to the human TLR4/MD-2 complex on the surface of transfected CHO cells. Monoclonal antibody binding to TLR4/MD-2 transfected CHO cells is shown by flow cytometry using chimeric 7E3 or an isotype matched control MAb at the indicated concentrations.
# as §3
# T2 sequence (O00206 24-839, chain 1 of 2): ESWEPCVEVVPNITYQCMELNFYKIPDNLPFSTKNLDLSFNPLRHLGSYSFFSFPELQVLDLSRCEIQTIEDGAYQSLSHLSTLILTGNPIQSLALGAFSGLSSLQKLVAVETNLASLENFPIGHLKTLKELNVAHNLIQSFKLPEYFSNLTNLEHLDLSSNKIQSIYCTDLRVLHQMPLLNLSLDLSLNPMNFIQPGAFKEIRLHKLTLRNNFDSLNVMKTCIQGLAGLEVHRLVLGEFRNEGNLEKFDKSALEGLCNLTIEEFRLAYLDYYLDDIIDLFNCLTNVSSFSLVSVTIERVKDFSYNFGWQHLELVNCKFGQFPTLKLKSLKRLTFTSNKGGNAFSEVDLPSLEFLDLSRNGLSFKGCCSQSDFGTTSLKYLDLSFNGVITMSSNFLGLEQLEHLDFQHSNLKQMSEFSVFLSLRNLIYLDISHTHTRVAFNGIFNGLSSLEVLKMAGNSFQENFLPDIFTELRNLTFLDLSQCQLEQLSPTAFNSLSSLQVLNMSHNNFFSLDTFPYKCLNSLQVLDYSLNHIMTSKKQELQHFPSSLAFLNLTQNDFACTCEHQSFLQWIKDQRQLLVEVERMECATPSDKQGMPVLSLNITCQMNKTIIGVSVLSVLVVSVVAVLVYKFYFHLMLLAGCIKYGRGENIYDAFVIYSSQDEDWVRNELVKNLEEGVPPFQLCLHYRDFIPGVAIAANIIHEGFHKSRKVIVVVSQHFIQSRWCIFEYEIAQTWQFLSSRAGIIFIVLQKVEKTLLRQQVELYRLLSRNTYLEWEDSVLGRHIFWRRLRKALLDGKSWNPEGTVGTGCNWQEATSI
# T2 sequence (Q9Y6Y9 19-160, chain 2 of 2): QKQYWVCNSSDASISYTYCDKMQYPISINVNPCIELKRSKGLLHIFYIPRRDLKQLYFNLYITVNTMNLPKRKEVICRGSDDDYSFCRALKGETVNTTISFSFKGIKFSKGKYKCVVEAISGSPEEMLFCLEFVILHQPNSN
# T1 sequence (O00206 24-839, chain 1 of 2): as the sequence (O00206 24-839, chain 1 of 2) above
# T1 sequence (Q9Y6Y9 19-160, chain 2 of 2): as the sequence (Q9Y6Y9 19-160, chain 2 of 2) above
# T3 sequence (O00206 24-839): as the sequence (O00206 24-839, chain 1 of 2) above
binder,measurement,setting,value
B1,binding result,[1],binds
same,binding result,[2],binds
B2,binding result,[3],binds
same,binding result,[4],binds
same,binding result,[5],binds
B3,binding result,[6],binds
B4,binding result,[7],no binding (tested: 10 µg/ml)
same,binding result,[3],binds
same,binding result,[8],binds
B5,binding result,[9],binds
B6,binding result,[9],binds

# Reference: patent US20180282426A1 (NOVIMMUNE S A, published 2018)
